Reference: paper PMC4608796

How the values were obtained:
[1] = molecular target: T1, His6-ScoC (Bacillus subtilis) (UniProt P11065); test: EMSA; conditions: CodY assays with 10 mM ILV (plus 2 mM GTP in Fig 2 footprints); Kd = protein monomer concentration shifting 50% of DNA; buffer, salt, pH and temperature not …
T1 sequence: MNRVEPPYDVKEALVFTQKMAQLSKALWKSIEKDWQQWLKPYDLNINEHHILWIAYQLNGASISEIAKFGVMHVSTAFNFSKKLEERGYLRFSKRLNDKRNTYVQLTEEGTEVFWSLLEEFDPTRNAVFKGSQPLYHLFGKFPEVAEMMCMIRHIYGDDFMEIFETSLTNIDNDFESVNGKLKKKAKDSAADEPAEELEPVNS

[2] = molecular target: T2, CodY-His5 (Bacillus subtilis) (UniProt P39779); test: EMSA; conditions: CodY assays with 10 mM ILV (plus 2 mM GTP in Fig 2 footprints); Kd = protein monomer concentration shifting 50% of DNA; buffer, salt, pH and temperature not …
T2 sequence: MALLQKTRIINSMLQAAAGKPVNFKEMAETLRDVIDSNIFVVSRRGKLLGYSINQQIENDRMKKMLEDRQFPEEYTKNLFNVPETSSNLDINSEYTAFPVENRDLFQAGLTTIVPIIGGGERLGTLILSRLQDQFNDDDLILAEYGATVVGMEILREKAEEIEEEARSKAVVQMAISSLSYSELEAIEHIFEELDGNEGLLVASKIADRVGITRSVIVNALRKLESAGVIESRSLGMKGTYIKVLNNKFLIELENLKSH

Question: How did the Kd [1] turn out when “TCGTTTCGTCATATTATCTGACAATTAATTGACAGAATATTTTAACATAATTATTAGGAGGATT (double strand) [braB64]” was run?
Answer: Its Kd is 150 nM.

Question: And the Kd [2]?
Answer: The Kd was 5 nM.

Question: With braB144p+ (gel shift) as the substance, how does the Kd [2] read?
Answer: Its Kd is 4 nM.

Question: Which Kd [2] does the source give for braB156p+ (gel shift) here?
Answer: Its Kd is 75 nM.

Question: braB242p+ was tested. Which Kd [2] did it give?
Answer: The Kd was 3 nM.
